Data on 26 molecules can be found in US20070020327A1.

For the first test, the target named is HLA-A*0206 (human). Briefly: competition with 125I-labelled standard peptide for purified HLA, gel filtration. Particulars: remark: other sources report otherwise. In general terms: In gel filtration, larger molecules generally elute earlier.
Regarding PALGTTCYA (modifications not checked) [Kallikrein 146 …], the binding affinity ratio (IC50 of standard peptide / IC50 of test peptide) was 0.0002. Regarding PALGTTCYA (modifications not checked) [PSA 142 …], the binding affinity ratio (IC50 of standard peptide / IC50 of test peptide) turned out to be 0.0002.

Turning to RMMNDQLMFL (modifications not checked) [peptide 1126.06 (PSM.662)], the IC50 – broadly, the concentration needed to halve the response being measured – came to 40 nM.

Staying with this test, now noted: remark: other sources report otherwise; scale: ratio.
Turning to LLRLSEPAELT (modifications not checked) [… (PSA, position 119, 11 amino acids)], the binding affinity ratio was 0.0002. Still for that read-out and setting: as for SLHLLSNDM (modifications not checked) [Kallikrein (hK2) peptide … (position 175, 9 amino acids)], the figure is -0.0001.

In the next test the target is HLA-A*0201 (human). Described as above. Particulars: remark: other sources report otherwise; scale: ratio.
LLRLSEPAELT (modifications not checked) [… (PSA, position 119, 11 amino acids)]: the binding affinity ratio amounted to 0.0023. In the case of SLHLLSNDM (modifications not checked) [Kallikrein (hK2) peptide … (position 175, 9 amino acids)], the binding affinity ratio is 0.0003.

Another test deals with HLA-A*0201 (human). Briefly: competitive inhibition of 125I-labelled standard peptide binding to purified HLA, gel filtration.
Conditions: not given
As to KINCSGKIVI (modifications not checked), the binding affinity ratio (ratio to standard peptide) came to 0.0001. Same read-out and setting: as for KINCSGKIV (modifications not checked), the figure is 0.0002; as for KAENIKKFL (modifications not checked) [… (PSM, position 66)], 0.0002; as for IVIARYGKV (modifications not checked) [… (PSM, position 200)], 0.0001. Turning to KAWGEVKRQI (modifications not checked) [… (PSM, position 723)], the binding affinity ratio (ratio to standard peptide) was found to be 0.0001.

The test is the same for the next values; noted with them: remark: other sources report otherwise.
In the case of ITSWGPEPCAL (modifications not checked) [… (Kallikrein, position 226)], the binding affinity ratio (ratio to standard peptide) was 0.0003. In turn, DLMLLRLSEPV (modifications not checked) [peptide 1419.13 … (HuK2.120.V11)] had an IC50 of 50 nM.

Another test addresses HLA-A*0201 (human). Put plainly: inhibition of 125I-labelled probe peptide binding to purified HLA-A*0201, gel filtration.
Conditions: not given
In the case of MMNDQLMFL (modifications not checked) [PSM.663 …], the half-maximal inhibitory concentration (IC50) is under 200 nM. Same read-out and setting: as for LMYSLVHNL (modifications not checked) [PSM.469 …], the figure is under 200 nM.

The test is the same for the next values; noted with them: remark: other sources report otherwise.
Regarding LLQERGVAYI (modifications not checked) [PSM.441 …], the IC50 is under 200 nM. Regarding GLPSIPVHPI (modifications not checked) [PSM.288 …], the IC50 was under 200 nM. ALDVYNGLL (modifications not checked) [PAP.299 …] yielded an IC50 of under 200 nM.

Molecule LVLAGGFFL (modifications not checked) [PSM.26 …] returned an IC50 of under 200 nM. FLRPRSLQCV (modifications not checked) [HuK2.165 …]: the IC50 was under 200 nM.

In turn, RMMNDQLMFL (modifications not checked) [PSM.662 …] returned an IC50 of under 200 nM.

Turning to QLMFLERAFI (modifications not checked) [PSM.667 …], the 50% inhibitory concentration (IC50) was under 200 nM. On the same count and under the same terms, as for VLAGGFFLL (modifications not checked) [PSM.27 …], the figure is under 200 nM; as for SLHLLSNDMCA (modifications not checked) [HuK2.175 …], under 200 nM.

In turn, IMYSAHDTTV (modifications not checked) [PAP.284 …] came in with an IC50 of under 200 nM.

As for GMPEGDLVYV (modifications not checked) [PSM.168 …], the IC50 is under 200 nM.

Turning to ALFDIESKV (modifications not checked) [PSM.711 …], the half-inhibitory concentration (IC50) was under 200 nM.
